Laboratory results from the supplement of paper PMC12338614.
± gives the uncertainty stated by the source.

B1: library; numbered along this chain (parent)
chain: MEVVDPQQLGMFTEGELMSVGMDTFIHRIDSTEVIYQPRRKRAKLIGKYLMGDLLGEGSYGKVKEVLDSETLCRRAVKILKKKKLRRIPNGEANVKKEIQLLRRLRHKNVIQLVDVLYNEEKQKMYMVMEYCVCGMQEMLDSVPEKRFPVCQAHGYFCQLIDGLEYLHSQGIVHKDIKPGNLLLTTGGTLKISDLGVAEALHPFAADDTCRTSQGSPAFQPPEIANGLDTFSGFKVDIWSAGVTLYNITTGLYPFEGDNIYKLFENIGKGSYAIPGDCGPPLSDLLKGMLEYEPAKRFSIRQIRQHSWFRKKHPPAEAPVPIPPSPDTKDRWRSMTVVPYLEDLHGADEDEDLFDIEDDIIYTQDFTVPGQVPEEEASHNGQRRGLPKAVCMNGTEAAQLSTKSRAEGRAPNPARKACSASSKIRRLSACKQQ

Variants of: B1
Assay: STK11 functional score (HeLa growth suppression), rescaled enrichment; synonymous median = 1, nonsense median = 0 (normalised score)
Settings: with HeLa; variant type: missense
Method in brief: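 The functional score takes the post/pre-selection log ratio, corrects it to wild type, rescales it to synonymous and nonsense medians, and merges it over codons and replicate transfections, with error from bootstrapping. Counts came from tiled gDNA amplicons sequenced on NextSeq (~2 million reads per tile). The libraries were POPCode codon-randomised, codon-optimised STK11 integrated by Bxb1 at an AAVS1 landing pad in HeLa, three regions with three transfections each.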

STK11 functional score of substitutions, site by site:
M289: S -0.188 ± 0.1, W -0.296 ± 0.059, D 0.312 ± 0.18, P -0.379 ± 0.11, V 0.966 ± 0.44, A 0.107 ± 0.21, C 0.75 ± 0.1, Y -0.218 ± 0.07, R -0.101 ± 0.11, G -0.0773 ± 0.11, E -0.103 ± 0.1, Q 0.0869 ± 0.082, L 0.831 ± 0.11, F -0.0683 ± 0.074
S283: D 1.29 ± 0.4, L 0.985 ± 0.11, G 1.19 ± 0.11, R 1.29 ± 0.41, F 0.745 ± 0.076, M 1.28 ± 0.22, W 0.819 ± 0.087, E 0.826 ± 0.5, C 0.98 ± 0.14, Y 0.69 ± 0.5, T 1.47 ± 0.17, P 1.15 ± 0.37, N 1.4 ± 0.29, I 0.942 ± 0.12, Q 1.51 ± 0.21, A 1.24 ± 0.14, V 1.17 ± 0.29
P281: E 1.3 ± 0.46, D 1.45 ± 0.3, C 0.746 ± 0.32, L 1.18 ± 0.11, T 1.46 ± 0.22, M 1.31 ± 0.21, S 0.965 ± 0.17, Q 1.51 ± 0.31, W 0.551 ± 0.072, G 0.787 ± 0.18, I 1.46 ± 0.18, V 1.19 ± 0.14, N 1.66 ± 0.19, A 0.84 ± 0.1, K 1.26 ± 0.79, Y 1.38 ± 0.23, F 1.23 ± 0.2, R 0.969 ± 0.13
P280: A 0.896 ± 0.17, W 0.665 ± 0.16, V 1.41 ± 0.096, S 1.16 ± 0.34, F 1 ± 0.18, K 1.67 ± 0.19, R 1.14 ± 0.17, N 1.63 ± 0.21, G 1.46 ± 0.23, Q 1.36 ± 0.4, D 1.45 ± 0.44, M 1.04 ± 0.38, I 1.36 ± 0.34, T 1.53 ± 0.25, E 1.69 ± 0.21, L 1.32 ± 0.19, H 1.17 ± 0.16
L286: F 0.971 ± 0.3, H 0.00834 ± 0.071, N 0.195 ± 0.1, P -0.27 ± 0.087, G -0.0797 ± 0.098, E 0.235 ± 0.36, W 1.16 ± 0.093, I 1.36 ± 0.24, Q 0.0782 ± 0.082, Y 1.36 ± 0.45, S 0.0276 ± 0.19, T 1.12 ± 0.14, R -0.117 ± 0.22, D -0.166 ± 0.12, A 0.163 ± 0.2, V 1.14 ± 0.18
P294: G 0.877 ± 0.15, W 1.36 ± 0.11, S 0.67 ± 0.14, D 0.708 ± 0.1, E 1.3 ± 0.3, T 1.09 ± 0.31, A 1.39 ± 0.21, H 0.973 ± 0.64, V 1.36 ± 0.4, Q 1.39 ± 0.23, L 0.297 ± 0.13, M 1.13 ± 0.4, I 0.351 ± 0.081, R 0.705 ± 0.19, N 0.433 ± 0.32
L285: D -0.216 ± 0.087, I 0.951 ± 0.32, H -0.443 ± 0.1, S -0.0113 ± 0.096, G -0.0815 ± 0.1, V 0.239 ± 0.1, Q -0.0107 ± 0.26, T -0.111 ± 0.11, F 0.988 ± 0.25, P -0.13 ± 0.21, Y -0.477 ± 0.072, R -0.201 ± 0.1, A -0.0789 ± 0.071, W -0.0646 ± 0.056, E -0.0678 ± 0.11
Y292: S 1.28 ± 0.23, P 1.38 ± 0.19, L 0.546 ± 0.15, D 1.09 ± 0.67, R 1.22 ± 0.21, W 0.686 ± 0.12, G 1.45 ± 0.21, A 1.15 ± 0.26, E 1.52 ± 0.22, T 1.68 ± 0.3, C 0.438 ± 0.15, V 0.931 ± 0.12, M 1.64 ± 0.31, F 0.991 ± 0.22, I 1.09 ± 0.13
G279: W 1.06 ± 0.077, A 0.991 ± 0.39, Q 1.32 ± 0.16, H 1.6 ± 0.31, F 1.27 ± 0.17, E 0.538 ± 0.088, T 1.57 ± 0.21, C 0.657 ± 0.1, L 1.41 ± 0.29, S 1.25 ± 0.12, P 1.17 ± 0.33, R 0.829 ± 0.35, M 0.984 ± 0.61, I 1.41 ± 0.4, N 1.57 ± 0.16, Y 1.43 ± 0.33, V 0.88 ± 0.32
D277: L 0.92 ± 0.12, I 1.45 ± 0.31, S 0.886 ± 0.28, W 0.81 ± 0.57, H 1.36 ± 0.54, V 1.23 ± 0.17, F 1.35 ± 0.39, N 1.15 ± 0.65, M 0.115 ± 0.11, T 1.59 ± 0.32, G 1.16 ± 0.2, C 1.32 ± 0.18, A 0.843 ± 0.41, R 1.34 ± 0.57
C278: I 0.402 ± 0.12, P 1.22 ± 0.19, S 1.21 ± 0.18, W 0.795 ± 0.1, F 0.811 ± 0.14, G 1.08 ± 0.34, Q 0.612 ± 0.12, Y 0.449 ± 0.12, A 1.29 ± 0.29, M 1.37 ± 0.14, E 1.66 ± 0.21, D 1.03 ± 0.54, T 1.22 ± 0.19, L 1.08 ± 0.46, K 1.57 ± 0.25, R 1.51 ± 0.28, N 1.12 ± 0.22, H 1.06 ± 0.35, V 0.943 ± 0.11
I274: V 0.7 ± 0.15, W 0.0744 ± 0.12, S 0.98 ± 0.21, R 0.816 ± 0.21, Y 1.16 ± 0.29
G288: A 0.95 ± 0.38, E 1.5 ± 0.71, I -0.0856 ± 0.36, S 0.938 ± 0.2, R 0.927 ± 0.28, P 0.0262 ± 0.088, F 0.357 ± 0.18, Y 0.713 ± 0.46, M 1.23 ± 0.13, L 0.221 ± 0.13, H 1.61 ± 0.19, D -0.347 ± 0.084, C 0.989 ± 0.45, V 0.518 ± 0.45
D284: M 1.19 ± 0.42, E 1 ± 0.29, F 0.579 ± 0.099, H 1.14 ± 0.31, N 1.29 ± 0.37, C 0.513 ± 0.086, R 1.55 ± 0.36, L 0.935 ± 0.21, W 0.576 ± 0.1, A 0.668 ± 0.26, T 0.863 ± 0.19, G 0.99 ± 0.21, S 1.27 ± 0.11, P 0.0198 ± 0.1, I 1.14 ± 0.43, V 0.716 ± 0.093
A295: L 0.756 ± 0.55, N 1.24 ± 0.13, G 1.37 ± 0.68, S 1.44 ± 0.16, D 1.21 ± 0.17, C 1.31 ± 0.43, H 1.4 ± 0.17, I 1.35 ± 0.48, F 1.08 ± 0.42
E293: I 1.16 ± 0.096, R 0.395 ± 0.12, S 1.08 ± 0.25, A 1.03 ± 0.15, T 1.3 ± 0.31, Q 1.23 ± 0.55, L 0.882 ± 0.13, N 1.55 ± 0.23, M 0.995 ± 0.14, G 0.451 ± 0.27, P 0.842 ± 0.41, F 1.07 ± 0.11, V 1.02 ± 0.18, W 1.07 ± 0.23, D 1.43 ± 0.47, H 1 ± 0.28
P275: Y 0.943 ± 0.55, M 0.445 ± 0.12, A 0.693 ± 0.35, I 1.17 ± 0.49, G 1.14 ± 0.41, V 0.683 ± 0.34, D 1.63 ± 0.17, F 0.767 ± 0.26, R 1.12 ± 0.28, L 0.807 ± 0.099, W 0.995 ± 0.1, E 0.52 ± 0.15, K 1.45 ± 0.32, N 1.41 ± 0.16, S 0.957 ± 0.27, T 0.875 ± 0.18
G276: W 1.36 ± 0.15, L 1.11 ± 0.21, S 1.42 ± 0.27, A 1.41 ± 0.14, E 1.57 ± 0.32, R 1.35 ± 0.18, C 1.2 ± 0.65, D 1.33 ± 0.75, P 1.22 ± 0.22, T 1.16 ± 0.21, I 0.493 ± 0.26, F 0.884 ± 0.19, V 1.05 ± 0.19
E291: P 0.178 ± 0.095, C 1.24 ± 0.24, N 0.978 ± 0.52, W 1.35 ± 0.12, V 1.28 ± 0.14, T 1.15 ± 0.44, L 0.796 ± 0.14, R 1.53 ± 0.18, D 1.03 ± 0.35, G 0.922 ± 0.22, H 1.17 ± 0.2, F 0.825 ± 0.25, Q 1.36 ± 0.41, K 1.28 ± 0.62, I 1.22 ± 0.56, S 1.38 ± 0.14, M 1.66 ± 0.17, A 1.47 ± 0.44
L282: G 0.43 ± 0.11, I 0.764 ± 0.1, V 0.86 ± 0.23, R 0.128 ± 0.1, P 0.541 ± 0.13, W 0.522 ± 0.086, A 0.846 ± 0.18, K 0.565 ± 0.1, M 0.225 ± 0.27, F 1.21 ± 0.33, S 0.442 ± 0.08, Y 1.07 ± 0.17, H 0.737 ± 0.71, D 1.26 ± 0.5, T 0.466 ± 0.16
L290: F 0.664 ± 0.42, V 0.625 ± 0.089, M 0.891 ± 0.12, C 1.06 ± 0.3, N -0.076 ± 0.064, H -0.09 ± 0.07, W 0.691 ± 0.1, P 0.264 ± 0.16, Y -0.205 ± 0.067, D -0.275 ± 0.15, T 1.07 ± 0.45, I 1.06 ± 0.21, G 0.0144 ± 0.1, E -0.387 ± 0.062, S 0.0143 ± 0.1, A 0.0427 ± 0.076, Q -0.237 ± 0.2, R -0.22 ± 0.065
K287: R 0.533 ± 0.14, N 1.49 ± 0.57, T 1.25 ± 0.2, E 1.62 ± 0.27, W 0.0714 ± 0.29, Y 0.843 ± 0.36, P 0.105 ± 0.28, Q 1.19 ± 0.51, A 0.932 ± 0.14, L 0.865 ± 0.14, I 1.27 ± 0.33, S 0.94 ± 0.2, G 1.28 ± 0.16, D 1.27 ± 0.18, H 1.3 ± 0.15, F 1.25 ± 0.2, V 1.2 ± 0.36
